Measured values published in IntAct's records for PubMed 9853758.

B1: Phosphate system positive regulatory protein PHO4 (Saccharomyces cerevisiae), P07270 (parent)
chain: MGRTTSEGIHGFVDDLEPKSSILDKVGDFITVNTKRHDGREDFNEQNDELNSQENHNSSENGNENENEQDSLALDDLDRAFELVEGMDMDWMMPSHAHHSPATTATIKPRLLYSPLIHTQSAVPVTISPNLVATATSTTSANKVTKNKSNSSPYLNKRRGKPGPDSATSLFELPDSVIPTPKPKPKPKQYPKVILPSNSTRRVSPVTAKTSSSAEGVVVASESPVIAPHGSSHSRSLSKRRSSGALVDDDKRESHKHAEQARRNRLAVALHELASLIPAEWKQQNVSAAPSKATTVEAACRYIRHLQQNVST
partner: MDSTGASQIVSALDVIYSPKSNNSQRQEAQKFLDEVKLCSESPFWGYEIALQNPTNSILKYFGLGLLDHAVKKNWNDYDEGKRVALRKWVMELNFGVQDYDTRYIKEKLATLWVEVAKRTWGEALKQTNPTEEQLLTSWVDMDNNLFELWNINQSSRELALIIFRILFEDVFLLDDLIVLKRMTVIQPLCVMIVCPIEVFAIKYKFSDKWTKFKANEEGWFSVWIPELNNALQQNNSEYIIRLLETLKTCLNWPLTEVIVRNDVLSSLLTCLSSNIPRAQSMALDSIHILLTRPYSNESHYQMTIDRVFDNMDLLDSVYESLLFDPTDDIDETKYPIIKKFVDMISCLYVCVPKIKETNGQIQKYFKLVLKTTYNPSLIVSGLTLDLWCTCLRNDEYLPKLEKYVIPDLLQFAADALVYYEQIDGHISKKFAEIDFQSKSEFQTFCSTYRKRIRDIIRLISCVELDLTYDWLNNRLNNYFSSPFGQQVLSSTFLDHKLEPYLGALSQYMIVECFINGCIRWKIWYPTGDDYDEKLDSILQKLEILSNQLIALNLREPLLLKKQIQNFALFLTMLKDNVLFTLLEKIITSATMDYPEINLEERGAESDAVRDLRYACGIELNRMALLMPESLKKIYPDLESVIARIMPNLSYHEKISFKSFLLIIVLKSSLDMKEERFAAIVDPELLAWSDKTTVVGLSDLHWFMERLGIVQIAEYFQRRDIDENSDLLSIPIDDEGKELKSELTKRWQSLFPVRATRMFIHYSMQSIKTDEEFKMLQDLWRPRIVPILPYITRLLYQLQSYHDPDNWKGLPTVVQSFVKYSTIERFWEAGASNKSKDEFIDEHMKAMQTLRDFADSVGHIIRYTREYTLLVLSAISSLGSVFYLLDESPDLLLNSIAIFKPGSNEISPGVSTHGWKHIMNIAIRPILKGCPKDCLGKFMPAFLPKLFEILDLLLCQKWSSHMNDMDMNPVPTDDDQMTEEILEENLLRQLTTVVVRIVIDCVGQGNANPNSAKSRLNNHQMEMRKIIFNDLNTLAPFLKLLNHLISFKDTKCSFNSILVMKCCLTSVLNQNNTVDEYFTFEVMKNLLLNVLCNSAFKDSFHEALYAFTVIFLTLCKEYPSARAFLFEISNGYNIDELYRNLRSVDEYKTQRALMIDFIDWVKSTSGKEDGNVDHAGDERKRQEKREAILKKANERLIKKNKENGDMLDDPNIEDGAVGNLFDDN

Variants of: B1
Conditions: with msn5_yeast MSN5, P52918

effect of a mutation on the interaction | Variant
disrupting interaction | MGRTTSEGIHGFVDDLEPKSSILDKVGDFITVNTKRHDGREDFNEQNDELNSQENHNSSENGNENENEQDSLALDDLDRAFELVEGMDMDWMMPSHAHHAPATTATIKPRLLYAPLIHTQSAVPVTIAPNLVATATSTTSANKVTKNKSNSAPYLNKRRGKPGPDSATSLFELPDSVIPTPKPKPKPKQYPKVILPSNSTRRVSPVTAKTSSSAEGVVVASEAPVIAPHGSSHSRSLSKRRSSGALVDDDKRESHKHAEQARRNRLAVALHELASLIPAEWKQQNVSAAPSKATTVEAACRYIRHLQQNVST [S100A;S114A;S128A;S152A;S223A]
